Reference: US20020176866A1
Non-standard residues stand in square brackets, D forms with d. No end group written: not given here.

B1: h88/A91, peptide analog of MBP (87-99) with D-histidine at residue 88 and alanine at residue 91 (peptide)
peptide: VV[dH]FFANIVTPRT
B2: MBP (87-99), human myelin basic protein residues 87-99 (peptide)
peptide: VVHFFKNIVTPRT
B3: a83, A89, A91 peptide analog of human myelin basic protein (peptide)
peptide: D[dA]NPVVHAFANIVTPRT

Key:
[1] = target: rat MHC class II (I-A or I-E) on splenic adherent cells (antigen presenting cells) (rat); experiment: competition with 10 µM biotin-labeled MBP (87-99) on rat splenic adherent cells, flow cytometry; competitor at 200 µM
[2] = target: rat MHC class II (I-A or I-E) on splenic adherent cells (antigen presenting cells) (rat); experiment: competition with 10 µM biotin-labeled MBP native peptide on rat splenic adherent cells, flow cytometry; competitor at 100 µM

Binder | percent inhibition of binding at 200 µM [1] [%] | percent inhibition of binding at 100 µM [2] [%]
B1 | 67.6 | –
B2 | 68.4 | 40
B3 | – | 25
